Data on six molecules can be found in PMC10580383, “Development of Melanocortin 4 Receptor Agonists by Exploiting Animal-Derived Macrocyclic, Disulfide-Rich Peptide Scaffolds” (ACS Pharmacology & Translational Science, 2023).

Experiment [1] addresses human melanocortin 4 receptor with LgBit fused at the C-terminus (human) (UniProt P32245).
Experiment [2] addresses mouse melanocortin 4 receptor fused to EGFP (mouse) (UniProt P56450).
For experiment [3] the target is unchanged. The source holds these as a separate data set.
The target of experiment [4] is human melanocortin 4 receptor with C-terminally fused SmBit (human) (UniProt P32245).

Bridges are numbered along the chain shown (N, C = ends). Where no end group is shown, it is not given here. [ ]: non-standard residue; d: D form.

mouse melanocortin 4 receptor fused to EGFP (mouse), sequence (P56450 whole entry, the tested form may be a part): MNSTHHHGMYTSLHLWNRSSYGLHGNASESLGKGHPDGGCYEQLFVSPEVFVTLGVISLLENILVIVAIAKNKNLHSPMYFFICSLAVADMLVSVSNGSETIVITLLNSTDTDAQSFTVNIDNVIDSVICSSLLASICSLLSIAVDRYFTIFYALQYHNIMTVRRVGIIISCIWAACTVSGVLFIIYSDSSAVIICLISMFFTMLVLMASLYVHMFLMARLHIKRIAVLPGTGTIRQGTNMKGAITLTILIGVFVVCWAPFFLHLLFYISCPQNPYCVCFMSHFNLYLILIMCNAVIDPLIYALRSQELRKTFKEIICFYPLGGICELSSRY
human melanocortin 4 receptor with LgBit fused at the C-terminus (human), sequence (P32245 whole entry, the tested form may be a part): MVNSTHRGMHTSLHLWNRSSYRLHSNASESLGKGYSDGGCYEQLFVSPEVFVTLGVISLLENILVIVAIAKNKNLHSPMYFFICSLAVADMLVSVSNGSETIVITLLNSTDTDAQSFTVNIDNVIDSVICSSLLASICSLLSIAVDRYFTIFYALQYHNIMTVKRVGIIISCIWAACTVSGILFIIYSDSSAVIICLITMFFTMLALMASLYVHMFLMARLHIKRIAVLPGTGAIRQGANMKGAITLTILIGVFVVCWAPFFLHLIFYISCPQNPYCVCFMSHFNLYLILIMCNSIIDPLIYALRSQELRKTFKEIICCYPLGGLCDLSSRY
human melanocortin 4 receptor with C-terminally fused SmBit (human), sequence (P32245 whole entry, the tested form may be a part): as above

On to α-MSH (peptide), for which, in experiment [1], the coupling of Gαs-SmBit to MC4R-LgBit (nanoluciferase complementation, live cells): EC50 came out at 1 nM.
For GFCWYVCVYH[dF]HWRVCYRRCN-NH2 (disulfide 7-16, 3-20) [arenicin-3-like peptide 4], the recruitment of β-arrestin-2-nanoluciferase to MC4R-EGFP (kinetic BRET, HEK293 cells), 10 μM peptide: BRET efficacy relative to NDP-α-MSH (100) in experiment [2] is less than 60%. Further, in experiment [3], the cAMP accumulation (Cisbio HTRF) in HEK293 cells transiently expressing mouse MC4R-EGFP: EC50 amounted to 820 nM and the cAMP accumulation (Cisbio HTRF) in HEK293 cells transiently expressing mouse MC4R-EGFP: Emax (normalised to NDP-α-MSH) was 106%.

B1: arenicin-3-like peptide 2 (peptide)
peptide: GFCWYVCVYPH[dF]HWVCYRRCN-NH2
modifications: disulfide 7-16, 3-20; N-terminus assumed
SMILES: CC(C)[C@@H]1NC(=O)[C@H](Cc2c[nH]c3ccccc23)NC(=O)[C@H](Cc2c[nH]cn2)NC(=O)[C@@H](Cc2ccccc2)NC(=O)[C@H](Cc2c[nH]cn2)NC(=O)[C@@H]2CCCN2C(=O)[C@H](Cc2ccc(O)cc2)NC(=O)[C@H](C(C)C)NC(=O)[C@@H]2CSSC[C@H](NC1=O)C(=O)N[C@@H](Cc1ccc(O)cc1)C(=O)N[C@@H](CCCNC(=N)N)C(=O)N[C@@H](CCCNC(=N)N)C(=O)N[C@H](C(=O)N[C@@H](CC(N)=O)C(N)=O)CSSC[C@H](NC(=O)[C@H](Cc1ccccc1)NC(=O)CN)C(=O)N[C@@H](Cc1c[nH]c3ccccc13)C(=O)N[C@@H](Cc1ccc(O)cc1)C(=O)N[C@@H](C(C)C)C(=O)N2
With B1, the recruitment of β-arrestin-2-nanoluciferase to MC4R-EGFP (kinetic BRET, HEK293 cells), 10 μM peptide: BRET efficiency relative to NDP-α-MSH (100) in experiment [2] was more than 130%. In experiment [3], this molecule yielded a cAMP accumulation (Cisbio HTRF) in HEK293 cells transiently expressing mouse MC4R-EGFP: EC50 of 18 nM and a cAMP accumulation (Cisbio HTRF) in HEK293 cells transiently expressing mouse MC4R-EGFP: Emax (normalised to NDP-α-MSH) of 95%.

B2: protegrin-4-like peptide 1 (peptide)
peptide: RGGRLCYCPH[dF]HWCFCVGR-NH2
modifications: disulfide 8-14, 6-16; N-terminus assumed
SMILES: CC(C)C[C@H](NC(=O)[C@H](CCCNC(=N)N)NC(=O)CNC(=O)CNC(=O)[C@@H](N)CCCNC(=N)N)C(=O)N[C@H]1CSSC[C@@H](C(=O)N[C@H](C(=O)NCC(=O)N[C@@H](CCCNC(=N)N)C(N)=O)C(C)C)NC(=O)[C@H](Cc2ccccc2)NC(=O)[C@@H]2CSSC[C@H](NC(=O)[C@H](Cc3ccc(O)cc3)NC1=O)C(=O)N1CCC[C@H]1C(=O)N[C@@H](Cc1c[nH]cn1)C(=O)N[C@H](Cc1ccccc1)C(=O)N[C@@H](Cc1c[nH]cn1)C(=O)N[C@@H](Cc1c[nH]c3ccccc13)C(=O)N2
In experiment [1], B2 gave a coupling of Gαs-SmBit to MC4R-LgBit (nanoluciferase complementation, live cells): EC50 of 0.193 nM and a coupling of Gαs-SmBit to MC4R-LgBit (nanoluciferase complementation, live cells): efficacy above that of α-MSH (% more efficacious than α-MSH) of 8.8. In addition, in experiment [2], the recruitment of β-arrestin-2-nanoluciferase to MC4R-EGFP (kinetic BRET, HEK293 cells), 10 μM peptide: BRET efficiency relative to NDP-α-MSH (100) was more than 130%. Besides, in experiment [3], the cAMP accumulation (Cisbio HTRF) in HEK293 cells transiently expressing mouse MC4R-EGFP: EC50 stood at 3.7 nM and the cAMP accumulation (Cisbio HTRF) in HEK293 cells transiently expressing mouse MC4R-EGFP: Emax (normalised to NDP-α-MSH) was 96%. In experiment [4], the recruitment of β-arrestin-2-LgBit to MC4R-SmBit (nanoluciferase complementation, live cells): EC50 was 23.5 nM and the recruitment of β-arrestin-2-LgBit to MC4R-SmBit (nanoluciferase complementation, live cells): increase in efficacy (Emax) over α-MSH (% increase in efficacy compared to α-MSH) amounted to 99.
In the case of GFCWYVCVYH[dF]RWRVCYRRCN-NH2 (disulfide 7-16, 3-20) [arenicin-3-like peptide 5], the recruitment of β-arrestin-2-nanoluciferase to MC4R-EGFP (kinetic BRET, HEK293 cells), 10 μM peptide: BRET efficacy relative to NDP-α-MSH (100) in experiment [2] was less than 60%. For the same molecule, in experiment [3], the cAMP accumulation (Cisbio HTRF) in HEK293 cells transiently expressing mouse MC4R-EGFP: EC50 was found to be 260 nM and the cAMP accumulation (Cisbio HTRF) in HEK293 cells transiently expressing mouse MC4R-EGFP: Emax (normalised to NDP-α-MSH) turned out to be 99%.

B3: arenicin-3-like peptide 1 (peptide)
peptide: GFCWYVCPH[dF]HWCYRRCN-NH2
modifications: disulfide 7-13, 3-17; N-terminus assumed
SMILES: CC(C)[C@@H]1NC(=O)[C@H](Cc2ccc(O)cc2)NC(=O)[C@H](Cc2c[nH]c3ccccc23)NC(=O)[C@@H](NC(=O)[C@H](Cc2ccccc2)NC(=O)CN)CSSC[C@@H](C(=O)N[C@@H](CC(N)=O)C(N)=O)NC(=O)[C@H](CCCNC(=N)N)NC(=O)[C@H](CCCNC(=N)N)NC(=O)[C@H](Cc2ccc(O)cc2)NC(=O)[C@@H]2CSSC[C@H](NC1=O)C(=O)N1CCC[C@H]1C(=O)N[C@@H](Cc1c[nH]cn1)C(=O)N[C@H](Cc1ccccc1)C(=O)N[C@@H](Cc1c[nH]cn1)C(=O)N[C@@H](Cc1c[nH]c3ccccc13)C(=O)N2
Take B3: in experiment [1], the coupling of Gαs-SmBit to MC4R-LgBit (nanoluciferase complementation, live cells): EC50 was determined as 0.702 nM and the coupling of Gαs-SmBit to MC4R-LgBit (nanoluciferase complementation, live cells): efficacy above that of α-MSH (% more efficacious than α-MSH) is 25. In experiment [2], this molecule came in with a recruitment of β-arrestin-2-nanoluciferase to MC4R-EGFP (kinetic BRET, HEK293 cells), 10 μM peptide: BRET efficiency relative to NDP-α-MSH (100) of more than 130%. For the same molecule, in experiment [3], the cAMP accumulation (Cisbio HTRF) in HEK293 cells transiently expressing mouse MC4R-EGFP: EC50 was 1 nM and the cAMP accumulation (Cisbio HTRF) in HEK293 cells transiently expressing mouse MC4R-EGFP: Emax (normalised to NDP-α-MSH) came out at 98%. In experiment [4], this molecule had a recruitment of β-arrestin-2-LgBit to MC4R-SmBit (nanoluciferase complementation, live cells): EC50 of 25.2 nM and a recruitment of β-arrestin-2-LgBit to MC4R-SmBit (nanoluciferase complementation, live cells): increase in efficacy (Emax) over α-MSH (% increase in efficacy compared to α-MSH) of 82.
